The values that follow come from PMC3245711.

This assay has as its target T1, human KCNJ2 channel (pND-CTFH construct, C-terminal FLAG and octa-histidine tags) (human), P63252.
T1 chain: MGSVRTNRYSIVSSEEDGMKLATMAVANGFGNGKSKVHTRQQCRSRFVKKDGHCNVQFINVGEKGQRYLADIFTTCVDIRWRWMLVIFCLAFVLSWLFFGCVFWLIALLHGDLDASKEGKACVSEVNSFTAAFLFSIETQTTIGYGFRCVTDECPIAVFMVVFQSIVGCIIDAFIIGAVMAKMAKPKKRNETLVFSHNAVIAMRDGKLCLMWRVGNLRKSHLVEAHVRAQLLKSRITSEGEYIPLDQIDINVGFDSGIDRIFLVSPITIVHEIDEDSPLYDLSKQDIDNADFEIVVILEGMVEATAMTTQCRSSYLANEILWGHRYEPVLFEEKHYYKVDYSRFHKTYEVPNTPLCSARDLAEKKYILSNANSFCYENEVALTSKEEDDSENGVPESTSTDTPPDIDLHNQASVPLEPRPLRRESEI
The experiment in a line: SEC. As to conditions: remark: other sources report otherwise.

B1: human KCNJ2 channel (pND-CTFH construct, C-terminal FLAG and octa-histidine tags), P63252 1-427 (natural protein)
chain: T1 chain
As usually defined, the stoichiometry N is a count of units in the complex or per binding partner. In the case of B1, the stoichiometry N worked out at 4.
